This passage reports protein stability index results from the supplement of paper PMC10567573.

Sequences and labels used below:
B1: TBC1D10A (parent)
chain: WCLVQICEKYLPGYYSEKLEAIQL
B2: RAB22A (parent)
chain: FVEDSFDPNINPTIGASFMTKTVQ
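Also: lentivirally expressed fusions sorted by FACS into six bins by GFP to DsRed ratio, PSI derived from sequencing read proportions per bin multiplied by bin number.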

One data set covers variants of B1. The data set can be described thus: protein stability index of a GFP-peptide fusion (GPS, HEK-293T) (PSI 1-6); higher = more stable. The conditions noted are these: c terminus: a fixed tail appended.
Regarding WCLVQIYEKYLPGYYSEKLEAIQL, the protein stability index was 3.39.
The same measure, in the same setting: the value for WCLVLICEKYLPGYYSEKLEAIQL was 3.52; that for WCLVGICEKYLPGYYSEKLEAIQL was 3.13.
On the same count and under the same terms, the value for WCLVVICEKYLPGYYSEKLEAIQL was 4.85; that for WCLVPICEKYLPGYYSEKLEAIQL was 2.69.
For the variant WCLVKICEKYLPGYYSEKLEAIQL, the protein stability index worked out at 1.71.
On the same count and under the same terms, the value for WCLVMICEKYLPGYYSEKLEAIQL was 2.16; that for WCLVFICEKYLPGYYSEKLEAIQL was 2.92; that for WCLVSICEKYLPGYYSEKLEAIQL was 2.72.
The same measure, in the same setting: the value for WCLVQICEKWLPGYYSEKLEAIQL was 4.21.
As for WCLVQICEKPLPGYYSEKLEAIQL, the protein stability index was 2.35.
On the same count and under the same terms, the value for WCLVQICEKKLPGYYSEKLEAIQL was 2.62.
WCLVQICEKQLPGYYSEKLEAIQL: the protein stability index came out at 2.39.
As for WCLVQICEKMLPGYYSEKLEAIQL, the protein stability index is 3.09.
Same read-out and setting: for WCLVQICEKGLPGYYSEKLEAIQL the value was 4.89.
As to WCLVQICEKILPGYYSEKLEAIQL, the protein stability index was 1.18.
With WCLVQICEKVLPGYYSEKLEAIQL, the protein stability index is 1.61.
On the same count and under the same terms, for WCLVQICEKYLPGYFSEKLEAIQL the value was 1.24; for WCLVQICEKYLPGYWSEKLEAIQL, 2.85.
For WCLVQICEKYLPGYCSEKLEAIQL, the protein stability index came to 2.35.
Still for that read-out and setting: the value for VCLVQICEKYLPGYYSEKLEAIQL was 2.6; that for RCLVQICEKYLPGYYSEKLEAIQL was 2.22; that for TCLVQICEKYLPGYYSEKLEAIQL was 3.45.
Still for that read-out and setting: for FCLVQICEKYLPGYYSEKLEAIQL the value was 2.61.
Consider HCLVQICEKYLPGYYSEKLEAIQL, for which the protein stability index worked out at 2.83.
The same measure, in the same setting: the value for ACLVQICEKYLPGYYSEKLEAIQL was 3.88; that for PCLVQICEKYLPGYYSEKLEAIQL was 1.93; that for QCLVQICEKYLPGYYSEKLEAIQL was 1.07.
On the same count and under the same terms, for WELVQICEKYLPGYYSEKLEAIQL the value was 1.01.
In the case of WGLVQICEKYLPGYYSEKLEAIQL, the protein stability index was 2.79.
Same read-out and setting: the value for WRLVQICEKYLPGYYSEKLEAIQL was 3.28; that for WNLVQICEKYLPGYYSEKLEAIQL was 3.07; that for WSLVQICEKYLPGYYSEKLEAIQL was 1.67.
Same read-out and setting: for WPLVQICEKYLPGYYSEKLEAIQL the value was 1.86; for WFLVQICEKYLPGYYSEKLEAIQL, 1.81; for WCLVQICEKYLPGYYDEKLEAIQL, 2.24.
On the same count and under the same terms, the value for WCLVQICEKYLPGYYHEKLEAIQL was 1.6.
With WCLVQICEKYLPGYYWEKLEAIQL, the protein stability index stood at 3.94.
Still for that read-out and setting: for WCLVQICEKYLPGYYEEKLEAIQL the value was 4.03; for WCLVQICEKYLPGYYPEKLEAIQL, 2.1; for WCLVQICEKYLPGYYYEKLEAIQL, 2.7.
Still for that read-out and setting: the value for WCLVQICEPYLPGYYSEKLEAIQL was 2.17.
With WCLVQICEHYLPGYYSEKLEAIQL, the protein stability index is 2.65.
Regarding WCLVQICECYLPGYYSEKLEAIQL, the protein stability index came out at 4.4.
For WCLVQICEAYLPGYYSEKLEAIQL, the protein stability index was found to be 1.11.
Regarding WCLVQICETYLPGYYSEKLEAIQL, the protein stability index came to 3.21.
Same read-out and setting: the value for WCLVQICEIYLPGYYSEKLEAIQL was 3.29; that for WCLVQICEFYLPGYYSEKLEAIQL was 3.33; that for WCLIQICEKYLPGYYSEKLEAIQL was 2.23.
Still for that read-out and setting: for WCLNQICEKYLPGYYSEKLEAIQL the value was 1.57.
Regarding WCLPQICEKYLPGYYSEKLEAIQL, the protein stability index was found to be 1.73.
The same measure, in the same setting: for WCLGQICEKYLPGYYSEKLEAIQL the value was 2.45; for WCLEQICEKYLPGYYSEKLEAIQL, 2.09.
The same measure, in the same setting: for WCLLQICEKYLPGYYSEKLEAIQL the value was 2.19; for WCLQQICEKYLPGYYSEKLEAIQL, 1.48; for WCLTQICEKYLPGYYSEKLEAIQL, 2.83.
Turning to WCLMQICEKYLPGYYSEKLEAIQL, the protein stability index is 3.23.
Consider WCLHQICEKYLPGYYSEKLEAIQL, for which the protein stability index amounted to 1.59.
Turning to WCLVQICEKYLPGYYSEILEAIQL, the protein stability index turned out to be 2.1.
On the same count and under the same terms, the value for WCLVQICEKYLPGYYSETLEAIQL was 2; that for WCLVQICEKYLPGYYSEMLEAIQL was 2.98; that for WCLVQICEKYLPGYYSEVLEAIQL was 3.17.
In the case of WCLVQICEKYLPGYYSELLEAIQL, the protein stability index was 1.83.
The same measure, in the same setting: the value for WCLVQICEKYLPGYYSERLEAIQL was 2.22.
Same read-out and setting: for WCLVQICEKYLPGYYSEQLEAIQL the value was 1.91.
On the same count and under the same terms, for WCLVQICEKYLPGYYSECLEAIQL the value was 3.08.
Turning to WCLVQICEKYLPGYYSEWLEAIQL, the protein stability index was determined as 3.09.
Same read-out and setting: the value for WCLVQICEKYLPGYYSEDLEAIQL was 1.92; that for WCLVQICEKYLPGYYSEHLEAIQL was 3.99.
On the same count and under the same terms, the value for WCLVQICEKYLPGYYSEKLWAIQL was 1.74; that for WCLVQICEKYLPGYYSEKLSAIQL was 2.64.
The same measure, in the same setting: the value for WCLVQICEKYLPGYYSEKLRAIQL was 1.8; that for WCLVQICEKYLPGYYSEKLTAIQL was 1.47; that for WCLVQICEKYLPGYYSEKLDAIQL was 1.79.
In the case of WCLVQICEKYLPGYYSEKLQAIQL, the protein stability index is 2.79.
Regarding WCLVQICEKYLPGYYSEKLIAIQL, the protein stability index came out at 2.3.
Still for that read-out and setting: the value for WCLVQICEKYLPGYYSEKLKAIQL was 3.35; that for WCLVQICEKYLPGYYSEKLAAIQL was 2.21.
For WCLVQICEKYLPGYYSEKLHAIQL, the protein stability index amounted to 3.07.
On the same count and under the same terms, the value for WCLVQICEKYLPGKYSEKLEAIQL was 3.06; that for WCLVQICEKYLPGDYSEKLEAIQL was 3.02.
WCLVQICEKYLPGVYSEKLEAIQL: the protein stability index was found to be 3.94.
Turning to WCLVQICEKYLPGEYSEKLEAIQL, the protein stability index amounted to 1.59.
Regarding WCLVQICEKYLPGPYSEKLEAIQL, the protein stability index was 2.61.
On the same count and under the same terms, the value for WCLVQICEKYLPGNYSEKLEAIQL was 3.59.

Variants of B2 are the subject of another data set. The data set is described as above. Particulars: c terminus: a fixed tail appended.
As to FVEDSFDPNINPTIGASFMTKTVN, the protein stability index was determined as 2.28.
On the same count and under the same terms, for FVEDSFDPNINPTIGASFMTKTVM the value was 1.71; for FVEDSFDPNINPTIGASFMTKTVT, 2.01.
As for FVEDSFDPNINPTIGASFMTKTVY, the protein stability index came out at 2.98.
Same read-out and setting: the value for FVEDSFDPNINPTIGASFMTKTVL was 2.19; that for FVEDSFDPNINPTIGASFMTKTVP was 2.45; that for FVEDSFDPNINPTIGASFMTKTVR was 2.38.
FVEDSFDPNINPTIGASFMTKTVS: the protein stability index came to 2.82.
FVEDSFDPNINPTIGASFMTKTVV: the protein stability index amounted to 2.24.
